Source: the nanobody polyreactivity screen of Harvey et al. (2022)

Assay: yeast display, Sf9 membrane polyspecificity reagent, FACS + sequencing; frameworks hold sequencing errors
Summary of the method: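 A synthetic nanobody library was expressed on Saccharomyces cerevisiae BJ5465 by galactose induction for 36–48 hours. The library was stained for 1 hour at 4 °C with 10% biotinylated, detergent-solubilized Sf9 membrane reagent and enriched with streptavidin microbeads before FACS. Low and high (top ~1%) gates were set on anti-HA fluorescence for expression and streptavidin fluorescence for reagent binding, and each polyreactivity label reflects the gate of origin.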

Q: With “QVQLVESGGGLVQAGGSLRLSCAASGYTFKTNDMGWYRPAPGKEREFVAAISAIGGSTYYADSVKGRFTISRDNAKNTVYLQMNSLKPEDTAVYYCAKDKSPYGYATNQYRKYYYWGQGTQVTVSS” as the sequence, how does the “polyreactivity (PSR sort gate)” value read?
A: low polyreactivity

Q: For “QVQLVESGGGLVQAGGSLRLSCAASGYTFLGYAMGWYRQAPGKERELVAAIRRSGGRPYYADSVKGRFTISRDNAKNTVYLQINRLKPEDTAVYYCAQGYVGEYDYWGQGTQVTVTS”, which “polyreactivity (PSR sort gate)” value is on record?
A: high polyreactivity

Q: Which “polyreactivity (PSR sort gate)” value does the source give for “QVQLVESGGGLVQAGGSLRLSCAASGYTFLYYAMGWYRQAPGKEREFVAAISRSGGSTYYADSVKGRFTISRDNAKNTVYLQMISLKPEDTAVYYCAARFRYQHQRGDYWGQGTQVTVSS” here?
A: high polyreactivity

Q: With “QVQLVESGGGLVQAGGSLRLSCAASGYTFLYYAMGWYRQAPGKEREFVAAISRSGGSTYYADSVKGRFTISRDNAKNTVYLQMNSLKPEDTAVYYCAKDHPSGRQYDYWGQGTQVTVSS” as the sequence, how does the “polyreactivity (PSR sort gate)” value read?
A: high polyreactivity

Q: Which “polyreactivity (PSR sort gate)” value does the source give for “QVQLVESGGGLVQAGGSLRLSCAASGYTFPDYAMGWYRQATGKERELVAAIRSGGGTNYADSVKGRFTISRDNAKNTVYLQMNSLKPEDTAVYYCAKEWAGGLYDYWGQGTQVTVSS” here?
A: low polyreactivity

Q: With “QVQLVESGGGLVQAGGSLRLSCAASGYTFPFYTMGWYRQAPGKERELVAAINSGGSTYYADSVKGRFTISRDNAKNTVYLQMNSLKPEDNAVYYCAVEGGFRVRYQAQYRYYYCGQGTQVTVSS” as the sequence, how does the “polyreactivity (PSR sort gate)” value read?
A: high polyreactivity

Q: For “QVQLVESGGGLVQAGGSLRLSCAASGYTFPRYAMGWYRQAPGKERELVAAITWSGGSTYYADSVKGRFTISRDNAKNTVYLQMNSLKPEDTAVYYCNTDRYHRVDFDYWGQGTQVTVSS”, which “polyreactivity (PSR sort gate)” value is on record?
A: high polyreactivity

Q: For “QVQLVESGGGLVQAGGSLRLSCAASGYTFPSNAMGWYRQAPGKERELVAAISSGGRTNYADSVKGRFTISRDNAKNTVYLQMNSLTPEDTAVYYCNADGGPGYPRAYDYWGQGTQVTGSS”, which “polyreactivity (PSR sort gate)” value is on record?
A: low polyreactivity

Q: For “QVQLVESGGGLVQAGGSLRLSCAASGYTFQTNTMGWYRQAPGKERELVAAITDGDSTNYADSVKGRFTISRDNAKNTVYLQMNSLKPEDTAVYYCAAQYYYSEAGMDYWGQGTQVTVSS”, which “polyreactivity (PSR sort gate)” value is on record?
A: low polyreactivity

Q: For “QVQLVESGGGLVQAGGSLRLSCAASGYTFRIYAMGWYRLAPGKERELVAGISSRGTSTYYADSVKGRFTISRDNAKNTVYLQMNSLKPEDTAVYYCAAGRYGRLYGYWGQGTQVTVSS”, which “polyreactivity (PSR sort gate)” value is on record?
A: high polyreactivity

Q: For “QVQLVESGGGLVQAGGSLRLSCAASGYTFRYYAMGWYRQAPGKERELVAAITGSGGSTYYADSVKGRFTISRDNAKNTVYLQMNSLKPEDTAVYYCNTVTTSYKRSGKFDYWGQGTQVTVSS”, which “polyreactivity (PSR sort gate)” value is on record?
A: high polyreactivity

Q: For “QVQLVESGGGLVQAGGSLRLSCAASGYTFRYYAMGWYRQAPGKERELVARITGRAGSTYYADSVKGRFTISRDNAKNTVYLQMNSLKPEDTAVYYCAAQPAHPRRYDYWGQGTQVTVSS”, which “polyreactivity (PSR sort gate)” value is on record?
A: high polyreactivity

Q: Which “polyreactivity (PSR sort gate)” value does the source give for “QVQLVESGGGLVQAGGSLRLSCAASGYTFSDNAMGWYRQAPGKERELVAAITSGVSTYYADSVKGRFTISRDNAKNTVYLQMNSQKPEDTAVYYCAKEVAVFADLYQGAPYGYWGQGTQVTVSS” here?
A: low polyreactivity

Q: Which “polyreactivity (PSR sort gate)” value does the source give for “QVQLVESGGGLVQAGGSLRLSCAASGYTFSDYAMGWYRQAPGKERELVAAISWSGGSTYYADSVKGRFTISRDNAKNTVYLQMNSLKPEDTAVYYCAAKWYAPDLLYYYWGQGTQVTVSS” here?
A: low polyreactivity

Q: Which “polyreactivity (PSR sort gate)” value does the source give for “QVQLVESGGGLVQAGGSLRLSCAASGYTFSHYAMGWYRQAPGTERELVAGITWSGGSTYYADSVKGRFTISRDNAKNTVYLQMNSLKPEDTSVYYCAAKYYWYYSYSGIPLFDYWGQGTQVTVSS” here?
A: low polyreactivity

Q: For “QVQLVESGGGLVQAGGSLRLSCAASGYTFSHYPMGWYRQAPGKERELVAGITWSGGSTYYADSVKGRFTISRDNAKNTVYLQMNSLKPEDTSVYYCAGKYYWYYSYSGIPLFDYWGQGTQVTVSS”, which “polyreactivity (PSR sort gate)” value is on record?
A: low polyreactivity

Q: For “QVQLVESGGGLVQAGGSLRLSCAASGYTFSLNAMGWYRQAPGKERELVAAISGRTGRTYYADSVKGRFTISRDNAKNTVYLQMNSLKPEDTAVYYGNKVYPYQRRTRFDYWGQGTQVTVSS”, which “polyreactivity (PSR sort gate)” value is on record?
A: high polyreactivity

Q: For “QVQLVESGGGLVQAGGSLRLSCAASGYTFSPNDMGWYRQAPGKERELVAAITSSVGSTYYADSVKGRFTISRDNAKNTVYLQLNSLKPEDTAVYYCNKQDSSYYISGGGDYDYWGQGTQVTVSS”, which “polyreactivity (PSR sort gate)” value is on record?
A: low polyreactivity

Q: With “QVQLVESGGGLVQAGGSLRLSCAASGYTFTGYALGWYRQAPGKERELVAAITSIGGSTYYADSVKGRFTISRDNAKNTVYLQMNSLKPEDTAVYYCAAEGDYVYDMDYWGQGTQVTVSS” as the sequence, how does the “polyreactivity (PSR sort gate)” value read?
A: low polyreactivity

Q: For “QVQLVESGGGLVQAGGSLRLSCAASGYTFTHYAMGWYRQAPGKERELVAGITWSGGSTYYADSVKGRLTISRDNAKNTVYLQMNSLKPEDTSVYYCAAKYYWYYSYSGIPLFDYWGQGTQVTVSS”, which “polyreactivity (PSR sort gate)” value is on record?
A: low polyreactivity

Q: Which “polyreactivity (PSR sort gate)” value does the source give for “QVQLVESGGGLVQAGGSLRLSCAASGYTFTLYAMGWYRQAPGKEREFVAAISIGGDSTYYADSVKGRFTISRDNAKNTVYLQMNSLKPEDTAVYYCAADTYQRWILLIGELQVETSYDYWGQGTQVTVSS” here?
A: low polyreactivity

Q: For “QVQLVESGGGLVQAGGSLRLSCAASGYTFVIYAMGWYRQAPGKERELVAAITTIGGRTYYADSVKGRFTISRDNAKNTVYLQMNSLKPEDTAVYYCAADIRSYRLYDGGYWGQGTQVTVSS”, which “polyreactivity (PSR sort gate)” value is on record?
A: low polyreactivity

Q: With “QVQLVESGGGLVQAGGSLRLSCAASGYTFVVYAMGWYRQAPGKERELVAGITRGSSTYYADSVKGRFTISRDNAKNTVYLQMNSLKPEDTAVYYCARGYTWFYAVWPEYDYWGQGTQVTVSS” as the sequence, how does the “polyreactivity (PSR sort gate)” value read?
A: high polyreactivity

Q: For “QVQLVESGGGLVQAGGSLRLSCAASGYTFVYYAMGWYRQAPGKERELVAAITSGGRTNYADSVKGRFTISRDNAKNTVYLQMNSLKPEDTAVYYCARLDYRSVRYGLRGQGTQVTVSS”, which “polyreactivity (PSR sort gate)” value is on record?
A: low polyreactivity

Q: For “QVQLVESGGGLVQAGGSLRLSCAASGYTFWDNAMGWYRQAPGKERELVAAITIRSGRTYYADSVKGRFTISRDNAKNTVYLQMNSLKPEDTAVYYCNAQIYTYRTGRGYSRMDYWGKGTQVTVSS”, which “polyreactivity (PSR sort gate)” value is on record?
A: high polyreactivity

Q: For “QVQLVESGGGLVQAGGSLRLSCAASGYTFWDYALGCYRQAPGKERAFVAGISFSDGGTYYADSVKGRFTISRDNAKNTVYLQMNSLKPEDTAVYYCAATYPYSWVYSGYYYWGQGTQVTVSS”, which “polyreactivity (PSR sort gate)” value is on record?
A: low polyreactivity

Q: With “QVQLVESGGGLVQAGGSLRLSCAASGYTFWLYAMGWYRQAPGKERELVATISRRAGTTYYADSVKGRFTISRDNAKNTVYLQMNSLKPEDTAVYYCNTDGYPRLYIYDYWGQGTQVTVSS” as the sequence, how does the “polyreactivity (PSR sort gate)” value read?
A: low polyreactivity

Q: Which “polyreactivity (PSR sort gate)” value does the source give for “QVQLVESGGGLVQAGGSLRLSCAASGYTFWWYAMGWYRQAPGKEREFVAAIRFSGGTGTYYADSVKGRFTISRDNAKNTVYLQMNSLKPEDTAVYYCAADIAFRQWQVGDFDYWGQGTQVTVSS” here?
A: low polyreactivity

Q: With “QVQLVESGGGLVQAGGSLRLSCAASGYTFWWYAMGWYRQAPGKEREFVAAIRFSGGTRTYYADSVKGRFTISRENAKYTVFLQMNSLKPDDTAVYYCAADIAFRQWQVGDFDYWGQGTQVTVSS” as the sequence, how does the “polyreactivity (PSR sort gate)” value read?
A: low polyreactivity

Q: With “QVQLVESGGGLVQAGGSLRLSCAASGYTFWYYTMGWYRQATGKERELVATISSNGRRTYYADSVKGRFTISRDNAKNTVYLQMNSLYPEDTAVYYCAAVLYRSWVYTTHDYWGHGTQVTVSS” as the sequence, how does the “polyreactivity (PSR sort gate)” value read?
A: high polyreactivity
